# In paper PMC7067740, “NDRG2 Protects the Brain from Excitotoxicity by Facilitating Interstitial Glutamate Uptake” (Translational Stroke Research, 2019):
# B1: endogenous NDRG2 (N-myc downstream regulated gene 2) (natural protein, UniProt Q9QYG0 1-371, looked up)
# chain: MAELQEVQITEEKPLLPGQTPETAKEAELAARILLDQGQTHSVETPYGSVTFTVYGTPKPKRPAIFTYHDVGLNYKSCFQPLFRFGDMQEIIQNFVRVHVDAPGMEEGAPVFPLGYQYPSLDQLADMIPCILQYLNFSTIIGVGVGAGAYILSRYALNHPDTVEGLVLINIDPNAKGWMDWAAHKLTGLTSSIPDMILGHLFSQEELSGNSELIQKYRGIIQHAPNLENIELYWNSYNNRRDLNFERGGETTLKCPVMLVVGDQAPHEDAVVECNSKLDPTQTSFLKMADSGGQPQLTQPGKLTEAFKYFLQGMGYMASSCMTRLSRSRTASLTSAASIDGSRSRSRTLSQSSESGTLPSGPPGHTMEVSC
# Molecular target: endogenous Na+/K+-ATPase β1 (mouse (endogenous in cultured mouse …, UniProt P14094 1-304))
# Assay: cell-based or functional assay
binder,measurement,value
B1,"half-life of endogenous Na+/K+-ATPase β1 in astrocytes after TAT-Ctrl treatment, with 100 μM emetine, immunoblot",1.83 h
same,"half-life of endogenous Na+/K+-ATPase β1 in astrocytes after TAT-β1(244–263) treatment, with 100 μM emetine, immunoblot",1.08 h
